The source of these data is paper PMC3536784 (PLoS ONE, 2013).

First the molecules themselves.
B1: biphenyl dioxygenase (BPDO_(B356)) α-subunit from Pandoraea pnomenusa B-356 (enzyme)
chain: MSSTMKDTQEAPVRWSRNWTPDAIRALVDQDNGKLDARIYADQDLYQLELERVFGRSWLMLGHETHIPKIGDYLTTYMGEDPVIMVRQKDQSIKVFLNQCRHRGMRIVRSDGGNAKAFTCTYHGWAYDIAGNLVNVPFEKEAFCDKKEGDCGFDKADWGPLQARVETYKGLVFANWDPEAPDLKTYLSDAMPYMDVMLDRTEAGTEAIGGIQKWVIPCNWKFAAEQFCSDMYHAGTMSHLSGVLAGLPPEMDLTQIQLSKNGNQFRSAWGGHGAGWFINDSSILLSVVGPKITQYWTQGPAAEKAARRVPQLPILDMFGQHMTVFPTCSFLPGINTIRTWHPRGPNEVEVWAFVLVDADAPEDIKEEFRLQNIRTFNAGGVFEQDDGENWVEIQRVMRGHKAKSTSLCAKMGLNVPNKNNPAYPGKTAYVYAEEAARGMYHHWSRMMSEPSWDTLKP
notes: Co-produced and co-purified with the β-subunit as the (αβ)3 oxygenase; three copies in the hexamer; Holds a Rieske Fe2S2 cluster and a mononuclear Fe(II); also called α of BphAE; source: heterologously produced and purified anaerobically as described previously [17]
B2: biphenyl dioxygenase (BPDO_(B356)) β-subunit from Pandoraea pnomenusa B-356 (enzyme, UniProt Q46373 1-186, looked up)
chain: MISTPLSKEFEWPAKPVSLELQHQVEQFYYREAQLLDHHAFQAWFALLAEDIHYWMPIRTVRTAREQGLEYVPAGANAHFDDTHATMYGRIRQKTSDLNWAEDPPSRTRHLVSNVIVREMDTPGTLEVASAFLLYRSRLERQVDVFAGERRDVLRIADNPLGFQIAKRTIILDQSTVLANNLSVFF
notes: the final models include the complete β-subunit; Co-produced and co-purified with the α-subunit as the (αβ)3 oxygenase; three copies in the hexamer; also called β of BphAE; BPDO β; source: heterologously produced and purified anaerobically as described previously [17]

Data set [1] deals with the molecule itself. Nature of the data set: crystal structure; crystals grown anaerobically by sitting drop vapor diffusion (citrate pH 5.8 or MES pH 6.0), space group R3, one αβ protomer in the asymmetric unit; three αβ protomers about the crystallographic three-fold axis form the (αβ)3 hexamer; without and with biphenyl.
Data set [2] concerns the target B1. Described as above. The settings on record: both partners purified.

In the case of B1, the binding result in data set [1] is “binds”.
Consider B2, for which the binding result in data set [2] and in data set [1] was “binds” in each case.
